Assay results reported in the DeepSol protein solubility set.

Experiment: soluble on expression in E. coli; label from the status in PepcDB or PDB records

Sequence | soluble on expression in E. coli
MSLDTMIASLEQSKKRAEEELSETESIRKEAEKLHKELQQQIIELNSKKDKMLEEAEQQAAEKVKAAMKEAEDIIHELRTIKEEHKSFKDHELINAKKRLEGAMPAFEKSKKPEKPKTQKRDFKPGDEVKVLTFGQKGTLLEKTGGNEWNVQIGILKMKVKEKDLEFIKSAPEPKKEKMITAVKGKDYHVSLELDLRGERYENALSRVEKYLDDAVLAGYPRVSIIHGKGTGALRKGVQDLLKNHRSVKSSRFGEAGEGGSGVTVVELKEGHHHHHH | soluble
MGHHHHHHSHMTDRQDIQKSMAAFKNLSAQCQEVRKRKELELQILTEAIRNWEGDDIKTLGNVTYMSQVLIQCAGSEEKNERYLLLFPNVLLMLSASPRMSGFIYQGKLPTTGMTITKLEDSENHRNAFEISGSMIERILVSCNNQQDLQEWVEHLQKQTKVTSVG | soluble
MSTYSSPFSRLLHPFSSPPLRPHQDSTTRQTVFIYSSPPVNSSMATDNVRLERMEIGMQLLLLRMAEKDGEAEKLARAELITEANLGGQGETTQLNPLVPVSKATAEKLSNELDEVGRNRTARWSKSGRTCVVS | not soluble
MSLKITIRDIAKQAEVSISTVSFVINGKGEKMAISPAVIKKVQDVAQKLQYKPSMIASSLRTGKTRSIGLIVEDISNQFFADLARVIEDEAKNINYRVFYCSTGDDNDRSEELVQSLLQANVEGFIITPTRNLEKTISQLLKLQKPVVLIDRYFANQKVSHVVMDNYEGSYSAVKFLISKGRKNIAVVNNKSGMIQMKLREKGYVEALKEEGIYNEKYTLLLDYHSSEKTRIEEIINFFNQNKEIDAVLFCANYMGLAGLQAFRTLNYKIPNDISVISFDDHDSFKLHTPTISVIAQPIEDIAVESIQLLMSQMTNFEDFKIEKVLKKGTLIIRESVEGHHHHHH | soluble
MSIRFARKADCAAIAEIYNHAVLYTAAIWNDQTVDADNRIAWFEARTLAGYPVLVSEENGVVTGYASFGDWRSFDGFRHTVEHSVYVHPDHQGKGLGRKLLSRLIDEARDCGKHVMVAGIESQNQASLHLHQSLGFVVTAQMPQVGTKFGRWLDLTFMQLQLDERTEPDAIG | soluble
MVMVNFVKAGCSRWRCMLAKDTCIFTTFQMVPVSLCCCSYDRCNVGGNPVYSDNPKQIQNGGGNSGNWNSGGNNNGASGGSWGNGNANNNNNNNNGGSNNNGWGNNNDWSSNYNYGGSNAANEPKMTKQTVAGDDSWNKNKWTNKQVEDMFKKSIDDRGDEIQLEDDFKKIDKNYKTQSVPQESLRTLSARKEVEKIPFVAGKSSGVGAKTTASPTTGKSKEIQL | not soluble
GPGSMTKAASLKKGSGDKRAREASLQEATARKVKVETAAMLPKASHDSQAHPNLFSWLLNTSRGEFFRKYFERKHLVASHGSGEYFASGLPGVVPPVNWSTERMLEHVKTHPSRYGADLDIVKFDPKLKRRVSYRTKGLVDAAELEACMKDGWSVRFLRPNEFIESNSAFIGCIEKEFNCYCGANSYWTPANSQGFAPHYDDVDVFFLQLEGEKLWCLYDPPEDVDVLARHSSEDYAPERFPTPKHTITLKAGDVLYMPRGTVHQGKTTLKTHSLHITFSANQMNSWADFMSRAAQYTVETLAANKLEWRRALPRDMPQVMGEVNNPVFRDTHGLPALSANQQDHRANLQTKVREMVAELTLLLTDEVNMDVCADVYGKDTIQKLQPPSRTYSGAAPASRKLSHASRVRLISRNCMRLLLNVPGEARVYHIGQNSTVCLAGELGELRFEADFAPAIATLLSSYPKTMPVSALPFPGFDNSDDVAENQLLLVETLRDAGLLHVGSSAKGNAPS | soluble
GKRLGIFTHDNPDPDSMSSAYALREIAKQFDVIADILYYGEILHQKNRAMVNLLEIPMIRAPEVDLSHYDAFAIVDSSGPGVNNSIPPDIDISIVIDHHPAEKVVAEFVDLREDVGATATILTEYIKELKITPSKILATALFFGIKSETDEFKRNTRTADFLACAFLYPFVDQDLIEKIESPSI | not soluble
MEESRADGRNPNQLRPFSCTRNPLDRAHGSARWAQGDTIVLAAVYGPKPGTRKGENPEKASIEVVWKPMTGQIGKQEKEYEMTLKRTLQSICLLTVHPNTTTSVILQVVGNDGSLLPCAINACCAALVFAGIPLKHLAVAIGCGVLEDGEVILDTNKAEEQQLKSFAHLVFPNSRKSASSKEPNQKEEDSERGLITSITHGVMSEEDYFSCIERGLAASSRISDFMRTTLQKQAPGDVLEHHHHHH | soluble
FPELMPLRTQWTTIRDEALALQRIQKIRAAEGHTDAGFNSFFRRGWKRFYLKWYGTTHPSAIALCPKTTALLKNIPAIKAAMFAELPPGGDLRPHRDPFAGSMRLHLGLATPNHTSCFIDVDGQRYSWHDGEWVMFDETYIHYARNDTEHNRIILFCDIERPMRWRWAQALNRFVAKHLLAAGTSPN | not soluble
